According to patent publication US20180172683A1, “METHODS FOR ANALYZING THE INTERACTION BETWEEN A TARGET PROTEIN AND A LIGAND” (UNIVERSITY OF SOUTHERN CALIFORNIA, priority 2015, published 2018):
pKd: −log10 of the molar value. “And” between values parts separate entries of the source, which are not always exact repeats. Equal values may be shown once.

Assays:
[1] = target: B-cell lymphoma extra-large protein (Bcl-xL), first 209 amino acids with N-terminal avitag (UniProt Q07817); assay: Kd2 (monovalently bound mAb to a second Bcl-xL), divalent model, reverse assay only, Kd and [L]0 fit simultaneously
Sequence of B-cell lymphoma extra-large protein (Bcl-xL), first 209 amino acids with N-terminal avitag (Q07817 other isoform, or with tags, fused parts or gaps): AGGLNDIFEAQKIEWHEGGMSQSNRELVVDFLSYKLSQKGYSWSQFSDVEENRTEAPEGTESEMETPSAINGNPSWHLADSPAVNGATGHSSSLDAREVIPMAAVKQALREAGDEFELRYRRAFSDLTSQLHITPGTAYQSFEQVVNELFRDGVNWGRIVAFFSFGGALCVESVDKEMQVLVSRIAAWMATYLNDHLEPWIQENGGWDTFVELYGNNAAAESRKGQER

[2] = target: B-cell lymphoma extra-large protein (Bcl-xL), first 209 amino acids with N-terminal avitag (UniProt Q07817); assay: forward equilibrium assay, Kd-only fit, divalent model
[3] = target: B-cell lymphoma extra-large protein (Bcl-xL), first 209 amino acids with N-terminal avitag (UniProt Q07817); assay: forward equilibrium assay, Kd-only fit, monovalent model (said to fit poorly)
[4] = target: B-cell lymphoma extra-large protein (Bcl-xL), first 209 amino acids with N-terminal avitag (UniProt Q07817); assay: Kd1 (free mAb to Bcl-xL), divalent model, forward and reverse equilibrium assays combined, known [L]0
[5] = target: B-cell lymphoma extra-large protein (Bcl-xL), first 209 amino acids with N-terminal avitag (UniProt Q07817); assay: reverse equilibrium assay, divalent model; percent of monovalently bound mAb that does not interact with immobilized Bcl-xL
[6] = target: B-cell lymphoma extra-large protein (Bcl-xL), first 209 amino acids with N-terminal avitag (UniProt Q07817); assay: Kd1 (free mAb to Bcl-xL), divalent model, forward and reverse equilibrium assays combined, Kd and [L]0 fit simultaneously
[7] = target: B-cell lymphoma extra-large protein (Bcl-xL), first 209 amino acids with N-terminal avitag (UniProt Q07817); assay: Kd2 (monovalently bound mAb to a second Bcl-xL), divalent model, reverse assay only, known [L]0
[8] = target: B-cell lymphoma extra-large protein (Bcl-xL), first 209 amino acids with N-terminal avitag (UniProt Q07817); assay: equilibrium AMMP, divalent model
[9] = target: B-cell lymphoma extra-large protein (Bcl-xL), first 209 amino acids with N-terminal avitag (UniProt Q07817); assay: equilibrium ELISA, divalent model
[10] = target: B-cell lymphoma extra-large protein (Bcl-xL), first 209 amino acids with N-terminal avitag (UniProt Q07817); assay: forward equilibrium assay, Kd and [L]0 fit simultaneously, monovalent and divalent models

Substance: 54H6 monoclonal antibody against Bcl-xL (commercial)
- pKd [1]: 8.40
- pKd [2]: 10.85
- pKd [3]: 10.42
- pKd [4]: 10.68
- percent of monovalently bound mAb not interacting with immobilized Bcl-xL [5]: 74% and 73%
- pKd [6]: 10.72
- pKd [7]: 8.48
- pKd [8]: 10.92
- pKd [9]: 10.70
- pKd [10]: 10.96
